The target in test [1] is HAdV-D26 penton base (human adenovirus D26 (HAdV-D26)). Put plainly: cryo-EM structure.
The target in test [2] is HAdV-D26 hexon (human adenovirus D26 (HAdV-D26)). Put plainly: cryo-EM structure.

Several values for one entry are separate records, joined by “and”; a condition that tells them apart may be missing. Equal values may be shown once.

This passage reports stoichiometry N and stoichiometry N (copies of pVIn in a hexon) results from paper PMC8878492.

Broadly, the stoichiometry N is the number of molecules, sites or subunits per partner or assembly.

As to HAdV-D26 penton base (natural protein), the stoichiometry N in test [1] was 5 subunits. For “cleaved N-terminal fragment of HAdV-D26 pre-protein VI (pVIn) (peptide)”, the stoichiometry N (copies of pVIn in a hexon) in test [2] was 2 and 3.
